From patent CN110872351A come the findings set out here.

The assay has as its target GPC3蛋白 (glypican-3 protein expressed in eukaryotic HEK293 cells) (UniProt P51654). In words: sandwich ELISA: coated GPC3 polyclonal antibody, GPC3 protein at varied concentration, GN1-Luc fixed at 0.2 μg/mL, luminescence; the value is a GPC3 concentration.
UniProt P51654, sequence (P51654 25-559 limits assumed): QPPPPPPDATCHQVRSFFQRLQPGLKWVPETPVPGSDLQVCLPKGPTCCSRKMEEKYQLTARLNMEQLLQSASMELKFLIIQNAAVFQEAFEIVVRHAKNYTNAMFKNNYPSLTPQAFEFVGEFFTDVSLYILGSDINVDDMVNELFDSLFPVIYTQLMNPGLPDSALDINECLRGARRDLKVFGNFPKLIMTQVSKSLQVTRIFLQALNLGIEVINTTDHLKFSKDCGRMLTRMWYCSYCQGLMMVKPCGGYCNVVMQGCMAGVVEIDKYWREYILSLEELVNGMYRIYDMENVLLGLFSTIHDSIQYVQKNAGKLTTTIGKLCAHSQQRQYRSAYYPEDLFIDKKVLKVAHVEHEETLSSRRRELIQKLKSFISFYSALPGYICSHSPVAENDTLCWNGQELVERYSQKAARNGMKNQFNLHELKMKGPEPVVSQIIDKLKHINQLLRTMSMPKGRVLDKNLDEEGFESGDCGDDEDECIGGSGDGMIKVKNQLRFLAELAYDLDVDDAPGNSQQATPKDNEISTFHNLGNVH

B1: 融合蛋白GN1-Luc (fusion of nanobody GN1 and Nano-luciferase) (protein, part only; not given: junction residues and His tag, part only)
chain, part: QVQLVESGGGLVQAGGSLRLSCAASGRTFVGSTMGWFRQAPGKEREFVARMSWLGRSTYYADSVKGRFTISRDNAKNTVYLQMNSLKPEDTAVYYCALALGYIDLARPDAVDAWGQGTLVTVSS
Usually EC20 stands for the point of the concentration-response curve where the effect stands at 20%. A low value points to greater potency. A word on the EC80: it is the concentration at which the effect reaches the 80% level. A higher EC80 goes with a need for much substance. For B1, the EC20 came to 0.0519 µg/mL and the EC80 was determined as 0.157 µg/mL.
